According to PMC10350561 (MicrobiologyOpen, 2023):

Biological target: staphylococcal superantigen-like protein 1 (Staphylococcus aureus, strain of the …, UniProt A0A0H3KAV3)
Assay: ELISA
Settings: one partner purified

Sequence of staphylococcal superantigen-like protein 1 (A0A0H3KAV3 31-226): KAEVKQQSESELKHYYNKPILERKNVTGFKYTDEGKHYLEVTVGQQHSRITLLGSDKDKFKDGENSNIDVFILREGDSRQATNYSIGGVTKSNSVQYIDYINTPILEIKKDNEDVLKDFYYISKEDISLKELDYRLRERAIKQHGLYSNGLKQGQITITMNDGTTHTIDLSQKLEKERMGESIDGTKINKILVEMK

B1: scFv-99 (scFv-ALP fusion) (scFv, V domains shown)
VH: EVQLLESGGGLVQPGGSLRLSCAASGFTFSNYSMHWVRQAPGKGLEWVSVIDYNSGYTDYADSVKGRFTISRDNSKNTLYLQMNSLRAEDTAVYYCARGIFDYWGQGTLVTVSS
VL: EIVLTQSPGTLSLSPGERATLSCRASQSVSSSALAWYQQKPGQAPRLLIYGASSRATGVPDRFSGSGSGTDFTLTISRLEPEDFAVYYCQQSSSTPWTFGQGTKVEIK
- binding result: binds
